T1: hCDH6-transfected 293T cells (Homo sapiens, UniProt P55285)
T1 construct: expressed in transfected cells; host or cells: 293T cells (ATCC)
T1 sequence (P55285 19-790): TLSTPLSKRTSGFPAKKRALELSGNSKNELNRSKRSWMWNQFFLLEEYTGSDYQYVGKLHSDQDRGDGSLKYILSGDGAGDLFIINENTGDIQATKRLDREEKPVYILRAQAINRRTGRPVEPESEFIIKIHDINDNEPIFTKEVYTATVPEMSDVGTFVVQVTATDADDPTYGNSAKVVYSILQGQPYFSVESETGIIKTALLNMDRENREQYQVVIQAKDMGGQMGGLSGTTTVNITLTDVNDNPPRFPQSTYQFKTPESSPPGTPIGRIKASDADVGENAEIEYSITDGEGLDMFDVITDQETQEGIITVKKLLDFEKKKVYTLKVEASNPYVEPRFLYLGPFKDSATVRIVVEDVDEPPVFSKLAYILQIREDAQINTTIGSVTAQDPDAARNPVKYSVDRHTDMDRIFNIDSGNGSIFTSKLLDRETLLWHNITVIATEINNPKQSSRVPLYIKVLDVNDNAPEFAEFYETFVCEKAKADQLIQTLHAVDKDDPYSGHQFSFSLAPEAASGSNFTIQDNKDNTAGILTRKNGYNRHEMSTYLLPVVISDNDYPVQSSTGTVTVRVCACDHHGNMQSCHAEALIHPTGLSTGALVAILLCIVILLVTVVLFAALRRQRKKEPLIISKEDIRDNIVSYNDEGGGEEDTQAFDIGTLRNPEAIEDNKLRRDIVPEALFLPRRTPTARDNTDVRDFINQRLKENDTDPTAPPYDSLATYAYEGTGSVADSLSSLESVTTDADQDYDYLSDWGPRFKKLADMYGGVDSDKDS

T2: human CDH6 (Homo sapiens, UniProt P55285)
T2 construct: expressed in transfected cells; host or cells: 293α cells (HEK293 stably expressing integrin αv and β3)
T2 sequence (P55285 19-790): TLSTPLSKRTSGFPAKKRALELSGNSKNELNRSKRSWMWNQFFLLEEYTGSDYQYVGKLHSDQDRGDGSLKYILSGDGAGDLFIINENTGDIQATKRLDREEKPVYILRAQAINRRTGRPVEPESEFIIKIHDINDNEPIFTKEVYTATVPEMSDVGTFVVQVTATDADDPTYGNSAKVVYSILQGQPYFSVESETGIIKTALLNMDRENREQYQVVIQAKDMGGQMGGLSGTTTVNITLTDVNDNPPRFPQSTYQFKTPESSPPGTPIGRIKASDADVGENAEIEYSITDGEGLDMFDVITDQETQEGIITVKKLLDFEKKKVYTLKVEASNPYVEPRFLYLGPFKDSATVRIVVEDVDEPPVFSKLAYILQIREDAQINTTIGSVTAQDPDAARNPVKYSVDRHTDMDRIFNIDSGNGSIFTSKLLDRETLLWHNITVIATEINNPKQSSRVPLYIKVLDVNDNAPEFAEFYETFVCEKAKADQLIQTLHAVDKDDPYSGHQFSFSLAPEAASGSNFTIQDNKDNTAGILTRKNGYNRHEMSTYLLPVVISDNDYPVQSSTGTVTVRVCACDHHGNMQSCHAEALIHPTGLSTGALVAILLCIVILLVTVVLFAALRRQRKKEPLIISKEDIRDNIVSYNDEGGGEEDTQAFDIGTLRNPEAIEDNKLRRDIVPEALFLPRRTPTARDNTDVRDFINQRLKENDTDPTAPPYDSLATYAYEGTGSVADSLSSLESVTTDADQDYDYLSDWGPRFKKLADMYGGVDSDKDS


What was measured:
[1] = molecular target: T1, hCDH6-transfected 293T cells; test: Binding ability of rat anti-CDH6 antibody by flow cytometry; conditions: antibody final concentration 10 ng/mL
Description: The human CDH6-binding activity of the rat anti-CDH6 antibody produced in Reference Example 1)-7 was evaluated by flow cytometry. Using Lipofectamine 2000 (Thermo Fisher Scientific Inc.), pcDNA3.1-hCDH6 produced in Reference Example 1)-1 was transiently introduced into 293T cells (ATCC). The cells were cultured overnight under conditions of 37° C. and 5% CO2, and thereafter, a cell suspension was prepared. The suspension of the transfected 293T cells was centrifuged, and the supernatant was then removed. Thereafter, the cells were suspended by the addition of each of the 4 rat anti-CDH6 monoclonal antibodies (clone Nos: rG019, rG055, rG056 and rG061), which had been prepared in Reference Example 1)-7, or rat IgG control (R&D Systems, Inc.) (final concentration: 10 ng/mL). The cells were left standing at 4° C. for 1 hour. The cells were washed twice with PBS supplemented with 5% FBS, and then suspended by the addition of Anti-Rat IgG (whole molecule)-FITC antibody produced in rabbit (Sigma-Aldrich Co. LLC) that had been 50-fold diluted with PBS supplemented with 5% FBS. The cells were left standing at 4° C. for 1 hour. The cells were washed twice with PBS supplemented with 5% FBS, followed by detection using a flow cytometer (FC500; Beckman Coulter, Inc.). The data was analyzed using FlowJo (Tree Star, Inc.). In the histogram of FIG. 1, the abscissa depicts FITC fluorescence intensity indicating the amount of the antibody bound, and the ordinate depicts a cell count. […] The rat IgG control binds to neither of the cells. As a result, it was confirmed that the 4 produced rat anti-CDH6 monoclonal antibodies bind to 293T cells transfected with pcDNA3.1-hCDH6.

[2] = molecular target: T2, human CDH6; test: Hybridoma screening by Cell-ELISA; assay type: binding; conditions: hybridoma culture supernatant; 293α cells transfected with pcDNA3.1-hCDH6
Description: 293α cells (a stable expression cell line derived from HEK293 cells expressing integrin αv and integrin β3) were prepared at 5×10^5 cells/mL in DMEM medium supplemented with 10% FBS. In accordance with transduction procedures for using Lipofectamine 2000 (Thermo Fisher Scientific Inc.), DNA of pcDNA3.1-hCDH6 or pcDNA3.1-cynoCDH6, or pcDNA3.1 as a negative control was introduced into the 293α cells, and the cells were dispensed in an amount of 100 μL/well onto a 96-well plate (Corning Inc.). Thereafter, the cells were cultured under conditions of 37° C. and 5% CO2 in DMEM medium supplemented with 10% FBS for 24 to 27 hours. The obtained transfected cells were used for Cell-ELISA in an adhesive state.
The culture supernatant of the 293α cells transfected with the expression vector prepared in Reference Example 1)-4-1 was removed, and the culture supernatant from each hybridoma was then added to the 293α cells transfected with pcDNA3.1-hCDH6 or pcDNA3.1-cynoCDH6, or pcDNA3.1. The cells were left standing at 4° C. for 1 hour. The cells in the wells were washed once with PBS (+) supplemented with 5% FBS, and thereafter, Anti-Rat IgG-Peroxidase antibody produced in rabbit (Sigma-Aldrich Co. LLC) that had been 500-fold diluted with PBS (+) supplemented with 5% FBS was added to the wells. The cells were left standing at 4° C. for 1 hour. The cells in the wells were washed three times with PBS (+) supplemented with 5% FBS, and thereafter, OPD coloring solution (which had been prepared by dissolving o-phenylenediamine dihydrochloride (Wako Pure Chemical Industries, Ltd.) and H2O2 in an OPD solution (0.05 M trisodium citrate, 0.1 M disodium hydrogen phosphate 12-water; pH 4.5), so that the substances became 0.4 mg/ml and 0.6% (v/v), respectively, was added in an amount of 100 μL/well to the wells. A coloring reaction was carried out with occasional stirring. Thereafter, 1 M HCl was added to the plate (100 μL/well) to terminate the coloring reaction, followed by measurement of the absorbance at 490 nm using a plate reader (ENVISION: PerkinElmer, Inc.).
The heavy chain subclass and the light chain type of the antibody were determined using a RAT MONOCLONAL ANTIBODY ISOTYPING TEST KIT (DS Pharma Biomedical Co., Ltd.).

| Molecule | binding to 293T cells transfected with pcDNA3.1-hCDH6 [1] | binding to human CDH6 [2] |
| --- | --- | --- |
| rG056: rat anti-human CDH6 monoclonal antibody produced by hybridoma rG056; variable regions SEQ ID NO: 30 and 35 (antibody, listed as Rattus norvegicus, V domains shown) VL: DVQMTQSPSSLAASPGESVSISCRATKSIGIYLAWYQQKPGKTFKLLIYSGSTLQSGTPSRFSGSGSGTDFTLTIRSLEPEDFGLYFCQQFYENPFTFGSGTKLEIRRA VH: EVQLQESGPGLVKPSQSLSLTCSVTDYSITTYFWGWIRKFPGNKMEWMGYMSYRGGTSYNPSLKSRISITRDTSKNQFFLQLNSVTTEDTATYYCARCPNYGGHSLVFDYWGQGVMVTVSS | bind | bind specifically and strongly |
| rG055: rat anti-human CDH6 monoclonal antibody produced by hybridoma rG055; variable regions SEQ ID NO: 20 and 25 (antibody, listed as Rattus norvegicus, V domains shown) VL: DVQMTHSPSYLAASPGESVSISCKTSKNISNYLVWYQQKPGEAYKLLIYSGSTLQSGTPSRFSGSGSGTDFTLTIRSLEPEDFGLYFCQQYYEKPFTFGSGTKLEIKRA VH: EVQLQESGPGLVRPSQSLSLSCSVTDYSITSNYWGWIRRFPGNKMEWMGYITYSGYTSYNPSLQSRISITRDTSKNQFFLQLNSVTAEDTATYYCARSINHGGYSYVVDAWGPGASVTVSS | bind | bind specifically and strongly |
| rG061: rat anti-human CDH6 monoclonal antibody produced by hybridoma rG061; variable regions SEQ ID NO: 40 and 45 (antibody, listed as Rattus norvegicus, V domains shown) VL: DVQMTQSPSYLAASPGESVSISCKATKSISNYLAWYQQKPGEAYKVLIYSGSTLQSGTPSRFSGSGSGTDFTLTIRSLEPEDFGLYSCQQYYEKPLTFGSGTKLEIKRA VH: EVQLQESGPGLVKPSQSLSLTCSVTGYSITTYYWGWIRKFPGNKMEWMGYISYSGRTSYNPSLKSRMSITRDASKNQFFLQLNSVTTDDTATYYCARSPINHGGYWYFDFWGPGTMVTVSS | bind | bind specifically and strongly |
| rG019: rat anti-human CDH6 monoclonal antibody produced by hybridoma rG019; variable regions SEQ ID NO: 10 and 15 (antibody, listed as Rattus norvegicus, V domains shown) VL: DIQMTQSPSLLSASVGDRVTLNCKASQNIYKNLAWYQQKLGEGPKLLIYDANTLQTGIPSRFSGSGSGSDFTLTISSLQPEDVATYFCQQYYSGWAFGGVTNLELKRA VH: QVQLQQSGAELVKPGSSVKISCKASGYTFTRNFMHWIKQQPGNGLEWIGWIYCGDGETEYNQKFNGKATLTADRSSSTAYMELSRLTSEDSAVYFCARGVYGGFAGGYFDFWGQGVMVTVSS | bind | bind specifically and strongly |
